{"source": "patent US20170224836A1", "about": "(Novartis, published 2017)", "binders": {"B1": {"name": "NOV0712 (antibody, human IgG1, kappa, V domains shown)", "VH": "QVQLLESGGGLVQPGGSLRLSCAASGFTFSSHGMHWVRQAPGKGLEWVSVISGSGSNTGYADSVKGRFTISRDNSKNTLYLQMNSLRAEDTAVYYCARQWGSYAFDSWGQGTLVTVSS", "VL": "DIQMTQSPSSLSASVGDRVTITCRASQSISSYLNWYQQKPGKAPKLLIYAVSTLQSGVPSRFSGSGSGTDFTLTISSLQPEDFATYYCQQSGTFPPTTFGQGTKVEIKR"}}, "key": {"mouse CDH6 on cells": {"target": "T1, mouse CDH6 on cells (mouse, UniProt P97326 54-790)", "T1 sequence (looked up)": "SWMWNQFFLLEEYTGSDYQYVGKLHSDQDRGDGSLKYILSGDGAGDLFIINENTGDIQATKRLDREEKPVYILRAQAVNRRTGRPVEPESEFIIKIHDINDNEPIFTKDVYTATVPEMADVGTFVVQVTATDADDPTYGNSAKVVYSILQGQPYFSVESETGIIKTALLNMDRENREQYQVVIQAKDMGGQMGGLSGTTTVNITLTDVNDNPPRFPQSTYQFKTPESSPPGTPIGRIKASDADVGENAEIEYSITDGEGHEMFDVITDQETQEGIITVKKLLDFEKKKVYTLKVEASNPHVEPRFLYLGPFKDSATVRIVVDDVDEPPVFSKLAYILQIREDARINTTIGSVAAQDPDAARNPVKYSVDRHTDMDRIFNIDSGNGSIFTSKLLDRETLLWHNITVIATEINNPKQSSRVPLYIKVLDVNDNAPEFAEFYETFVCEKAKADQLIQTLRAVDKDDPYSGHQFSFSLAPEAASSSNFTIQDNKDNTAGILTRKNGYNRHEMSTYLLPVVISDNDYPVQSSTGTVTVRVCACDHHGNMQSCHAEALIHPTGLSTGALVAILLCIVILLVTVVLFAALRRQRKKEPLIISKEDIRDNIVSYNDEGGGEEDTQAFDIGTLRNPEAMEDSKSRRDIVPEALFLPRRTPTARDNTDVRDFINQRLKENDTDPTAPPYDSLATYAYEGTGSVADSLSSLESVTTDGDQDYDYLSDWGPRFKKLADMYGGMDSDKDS", "experiment": "FACS on CHO-mouseCDH6 cells"}, "human CDH6 on cells": {"target": "T2, human CDH6 on cells (human, UniProt P55285 54-790)", "T2 sequence": "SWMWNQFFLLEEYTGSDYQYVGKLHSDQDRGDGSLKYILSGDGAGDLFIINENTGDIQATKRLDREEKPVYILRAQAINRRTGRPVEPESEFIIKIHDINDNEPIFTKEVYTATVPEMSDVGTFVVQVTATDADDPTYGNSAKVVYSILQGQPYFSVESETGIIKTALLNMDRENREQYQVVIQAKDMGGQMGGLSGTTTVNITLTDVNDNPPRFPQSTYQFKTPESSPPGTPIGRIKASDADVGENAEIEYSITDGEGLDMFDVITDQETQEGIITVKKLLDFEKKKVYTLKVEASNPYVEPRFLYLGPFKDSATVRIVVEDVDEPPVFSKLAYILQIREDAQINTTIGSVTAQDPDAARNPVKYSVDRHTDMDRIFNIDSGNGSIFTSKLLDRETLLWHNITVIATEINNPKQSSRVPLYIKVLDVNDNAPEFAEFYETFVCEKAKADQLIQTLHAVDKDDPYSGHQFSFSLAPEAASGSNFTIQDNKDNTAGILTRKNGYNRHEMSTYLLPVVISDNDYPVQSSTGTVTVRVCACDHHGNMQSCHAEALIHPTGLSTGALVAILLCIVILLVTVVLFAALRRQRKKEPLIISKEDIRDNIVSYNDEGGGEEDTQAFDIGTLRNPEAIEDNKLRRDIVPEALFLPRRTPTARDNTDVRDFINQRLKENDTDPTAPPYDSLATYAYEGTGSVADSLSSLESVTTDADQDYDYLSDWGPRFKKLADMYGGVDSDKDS", "experiment": "FACS on CHO-TO-humanCDH6 cells plus tetracycline"}, "hCDH6aa54-615 APPavi [1]": {"target": "T3, hCDH6aa54-615 APPavi (human, UniProt P55285 54-615)", "T3 sequence": "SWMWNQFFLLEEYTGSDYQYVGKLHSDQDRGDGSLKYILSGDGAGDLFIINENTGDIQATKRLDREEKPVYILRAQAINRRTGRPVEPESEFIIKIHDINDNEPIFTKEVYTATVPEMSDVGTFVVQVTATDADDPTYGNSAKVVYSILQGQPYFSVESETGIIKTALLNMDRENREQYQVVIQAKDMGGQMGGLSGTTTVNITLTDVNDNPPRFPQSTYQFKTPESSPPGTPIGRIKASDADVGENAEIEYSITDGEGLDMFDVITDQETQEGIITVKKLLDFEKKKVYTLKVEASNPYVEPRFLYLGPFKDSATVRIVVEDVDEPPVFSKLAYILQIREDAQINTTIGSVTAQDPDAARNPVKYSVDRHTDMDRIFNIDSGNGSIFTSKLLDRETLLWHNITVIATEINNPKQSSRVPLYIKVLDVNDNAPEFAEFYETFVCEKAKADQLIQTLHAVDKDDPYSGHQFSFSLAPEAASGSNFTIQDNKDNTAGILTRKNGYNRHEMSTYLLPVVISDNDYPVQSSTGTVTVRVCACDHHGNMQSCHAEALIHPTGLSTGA", "experiment": "SPR binning"}, "hCDH6aa54-615 APPavi [2]": {"target": "T3, hCDH6aa54-615 APPavi", "experiment": "SPR binning", "remark": "listed apart in the source"}, "hCDH6aa54-615 APPavi [3]": {"target": "T3, hCDH6aa54-615 APPavi", "experiment": "SPR binning", "remark": "listed apart in the source"}, "hCDH6aa54-615 APPavi [4]": {"target": "T3, hCDH6aa54-615 APPavi", "experiment": "SPR binning", "remark": "listed apart in the source"}, "hCDH6aa54-615 APPavi [5]": {"target": "T3, hCDH6aa54-615 APPavi", "experiment": "SPR binning", "remark": "listed apart in the source"}, "hCDH6aa54-615 APPavi [6]": {"target": "T3, hCDH6aa54-615 APPavi", "experiment": "SPR binning", "remark": "listed apart in the source"}, "hCDH6aa54-615 APPavi [7]": {"target": "T3, hCDH6aa54-615 APPavi", "experiment": "SPR binning", "remark": "listed apart in the source"}}, "note": "Read-outs that look alike come from different tables or passages of the source."}
{"binder": "B1", "values": [{"measurement": "EC50 (read off the curve)", "setting": "mouse CDH6 on cells", "result": "~1", "unit": "nM"}, {"measurement": "EC50 (read off the curve)", "setting": "human CDH6 on cells", "result": "~900", "unit": "pM"}, {"measurement": "response of secondary antibody on primary antibody-CDH6 complex", "setting": "hCDH6aa54-615 APPavi [1]", "result": 5.12}, {"measurement": "response of secondary antibody on primary antibody-CDH6 complex", "setting": "hCDH6aa54-615 APPavi [2]", "result": -3.26}, {"measurement": "response of secondary antibody on primary antibody-CDH6 complex", "setting": "hCDH6aa54-615 APPavi [3]", "result": -1.82}, {"measurement": "response of secondary antibody on primary antibody-CDH6 complex", "setting": "hCDH6aa54-615 APPavi [4]", "result": 16.5}, {"measurement": "response of secondary antibody on primary antibody-CDH6 complex", "setting": "hCDH6aa54-615 APPavi [5]", "result": 9.51}, {"measurement": "response of secondary antibody on primary antibody-CDH6 complex", "setting": "hCDH6aa54-615 APPavi [6]", "result": 24.7}, {"measurement": "response of secondary antibody on primary antibody-CDH6 complex", "setting": "hCDH6aa54-615 APPavi [7]", "result": 6}]}
